Measurements from the supplement of paper PMC9112550, “Optimization of the antimicrobial peptide Bac7 by deep mutational scanning” (BMC Biology, 2022).

System: Escherichia coli TOP10
Test: shrunken log2 fold change of peptide-encoding DNA abundance (4.5 h post-induction vs induction); higher = less antimicrobial activity (less host growth inhibition)
Details: time post-induction: 4.5 h; library: site-saturation at positions 5, 18, 19, 20
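Note: peptides expressed intracellularly from a pBAD plasmid library in pooled LB shake-flask culture, induced with 0.3% L-arabinose, DNA abundance read by NGS, three biological replicates, DESeq2 with apeglm shrinkage.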

| Sequence | shrunken log2 fold change |
| --- | --- |
| RRIRWRPPRLPRPRPRPAGCPRP | 0.28 |
| RRIRSRPPRLPRPRPRPSTTPRP | -0.433 |
| RRIRHRPPRLPRPRPRPSQDPRP | -0.032 |
| RRIRNRPPRLPRPRPRPVTCPRP | -0.45 |
| RRIRPRPPRLPRPRPRPAEWPRP | 0.308 |
| RRIRHRPPRLPRPRPRPIFIPRP | -0.372 |
| RRIRFRPPRLPRPRPRPWWNPRP | -0.26 |
| RRIRCRPPRLPRPRPRPQLAPRP | 0.163 |
| RRIRHRPPRLPRPRPRPGMVPRP | 0.12 |
| RRIRPRPPRLPRPRPRPFLIPRP | -0.459 |
| RRIRERPPRLPRPRPRPQMSPRP | -0.114 |
| RRIRVRPPRLPRPRPRPIQWPRP | 0.138 |
| RRIRIRPPRLPRPRPRPLYFPRP | -0.961 |
| RRIRMRPPRLPRPRPRPNSDPRP | 0.0685 |
| RRIRYRPPRLPRPRPRPQRWPRP | -0.13 |
| RRIRFRPPRLPRPRPRPIVQPRP | 0.00873 |
| RRIRGRPPRLPRPRPRPKIIPRP | 0.303 |
| RRIRARPPRLPRPRPRPHPIPRP | 0.286 |
| RRIRERPPRLPRPRPRPKVPPRP | -0.015 |
| RRIRHRPPRLPRPRPRPWFMPRP | -0.474 |
| RRIRYRPPRLPRPRPRPSNPPRP | -0.512 |
| RRIRMRPPRLPRPRPRPAIWPRP | 1.36 |
| RRIRSRPPRLPRPRPRPLCFPRP | -0.0528 |
| RRIRIRPPRLPRPRPRPSKWPRP | -0.539 |
| RRIRMRPPRLPRPRPRPEQLPRP | 1.94 |

| Sequence | shrunken log2 fold change |
| --- | --- |
| RRIRRRPPRLPRPRPRPAQIPRP | 0.494 |
| RRIRVRPPRLPRPRPRPENVPRP | -0.0136 |
| RRIRPRPPRLPRPRPRPIICPRP | -0.188 |
| RRIRIRPPRLPRPRPRPVMEPRP | -0.194 |
| RRIRERPPRLPRPRPRPNLGPRP | -0.161 |
| RRIRLRPPRLPRPRPRPKIMPRP | -0.314 |
| RRIRIRPPRLPRPRPRPERNPRP | 0.146 |
| RRIRLRPPRLPRPRPRPAVFPRP | 0.142 |
| RRIRSRPPRLPRPRPRPHMWPRP | 0.202 |
| RRIRRRPPRLPRPRPRPSMMPRP | -0.216 |
| RRIRFRPPRLPRPRPRPNEDPRP | 0.144 |
| RRIRSRPPRLPRPRPRPEYSPRP | -0.322 |
| RRIRNRPPRLPRPRPRPEERPRP | -0.116 |
| RRIRMRPPRLPRPRPRPEMHPRP | 0.346 |
| RRIRGRPPRLPRPRPRPNSVPRP | -0.0052 |
| RRIRTRPPRLPRPRPRPHQHPRP | -0.415 |
| RRIRQRPPRLPRPRPRPPYIPRP | -0.449 |
| RRIRKRPPRLPRPRPRPHYTPRP | -0.395 |
| RRIRLRPPRLPRPRPRPWDDPRP | -0.208 |
| RRIRHRPPRLPRPRPRPFAKPRP | -0.362 |
| RRIRVRPPRLPRPRPRPLWLPRP | -0.00434 |
| RRIRWRPPRLPRPRPRPISAPRP | -0.0163 |
| RRIRCRPPRLPRPRPRPQPAPRP | 0.632 |
| RRIRMRPPRLPRPRPRPMIVPRP | -0.101 |
| RRIRCRPPRLPRPRPRPMSSPRP | 0.0481 |

| Sequence | shrunken log2 fold change |
| --- | --- |
| RRIRRRPPRLPRPRPRPQHSPRP | -0.0462 |
| RRIRMRPPRLPRPRPRPDIHPRP | 0.335 |
| RRIRERPPRLPRPRPRPCHEPRP | -0.0789 |
| RRIRQRPPRLPRPRPRPQIWPRP | 0.0984 |
| RRIRQRPPRLPRPRPRPVTSPRP | -0.0277 |
| RRIRYRPPRLPRPRPRPWMYPRP | -0.00277 |
| RRIRQRPPRLPRPRPRPPFTPRP | -0.0512 |
| RRIRVRPPRLPRPRPRPTCMPRP | -0.125 |
| RRIRIRPPRLPRPRPRPWKHPRP | -0.0111 |
| RRIRKRPPRLPRPRPRPMCLPRP | -0.0392 |
| RRIRTRPPRLPRPRPRPRLRPRP | 0.403 |
| RRIRLRPPRLPRPRPRPDIEPRP | 0.0333 |
| RRIRWRPPRLPRPRPRPHAGPRP | -0.0783 |
| RRIRNRPPRLPRPRPRPLPYPRP | -0.542 |
| RRIRSRPPRLPRPRPRPREPPRP | 0.284 |
| RRIRPRPPRLPRPRPRPWGNPRP | -0.225 |
| RRIRNRPPRLPRPRPRPAMFPRP | -0.204 |
| RRIRFRPPRLPRPRPRPWCSPRP | -0.714 |
| RRIRTRPPRLPRPRPRPRRIPRP | -0.16 |
| RRIRERPPRLPRPRPRPAKNPRP | -0.0998 |
| RRIRTRPPRLPRPRPRPKDRPRP | -0.196 |
| RRIRKRPPRLPRPRPRPEENPRP | -0.00213 |
| RRIRPRPPRLPRPRPRPNIMPRP | -0.694 |
| RRIRHRPPRLPRPRPRPCTGPRP | 0.00233 |
| RRIRFRPPRLPRPRPRPCHFPRP | -0.00959 |

| Sequence | shrunken log2 fold change |
| --- | --- |
| RRIRKRPPRLPRPRPRPKLYPRP | 0.164 |
| RRIRNRPPRLPRPRPRPLGYPRP | -0.165 |
| RRIRHRPPRLPRPRPRPQKVPRP | -0.0567 |
| RRIRPRPPRLPRPRPRPETEPRP | 0.344 |
| RRIRPRPPRLPRPRPRPWEEPRP | 0.148 |
| RRIRMRPPRLPRPRPRPGKIPRP | 0.0308 |
| RRIRMRPPRLPRPRPRPGLYPRP | -0.196 |
| RRIRQRPPRLPRPRPRPFRQPRP | -0.148 |
| RRIRCRPPRLPRPRPRPDYNPRP | -0.571 |
| RRIRRRPPRLPRPRPRPLCIPRP | -0.119 |
| RRIRQRPPRLPRPRPRPTERPRP | 0.313 |
| RRIRMRPPRLPRPRPRPDNAPRP | -0.267 |
| RRIRKRPPRLPRPRPRPAQYPRP | -0.141 |
| RRIRFRPPRLPRPRPRPAFHPRP | -0.228 |
| RRIRYRPPRLPRPRPRPPACPRP | -0.146 |
| RRIRQRPPRLPRPRPRPFFCPRP | 0.111 |
| RRIRWRPPRLPRPRPRPAEVPRP | 0.204 |
| RRIRERPPRLPRPRPRPLQTPRP | 0.22 |
| RRIRHRPPRLPRPRPRPSVCPRP | -0.294 |
| RRIRERPPRLPRPRPRPPSIPRP | -0.0171 |
| RRIRTRPPRLPRPRPRPPGAPRP | 0.995 |
| RRIRSRPPRLPRPRPRPQKCPRP | 0.0984 |
| RRIRYRPPRLPRPRPRPFCDPRP | -0.208 |
| RRIRIRPPRLPRPRPRPCSNPRP | -0.11 |
| RRIRWRPPRLPRPRPRPKYRPRP | 0.00658 |

| Sequence | shrunken log2 fold change |
| --- | --- |
| RRIRIRPPRLPRPRPRPNAQPRP | -0.0106 |
| RRIRIRPPRLPRPRPRPFFEPRP | -0.267 |
| RRIRTRPPRLPRPRPRPMTPPRP | 0.126 |
| RRIRNRPPRLPRPRPRPAVRPRP | 0.2 |
| RRIRCRPPRLPRPRPRPFIKPRP | -0.715 |
| RRIRTRPPRLPRPRPRPYNNPRP | -0.429 |
| RRIRYRPPRLPRPRPRPSFMPRP | -0.759 |
| RRIRWRPPRLPRPRPRPYCKPRP | -0.864 |
| RRIRNRPPRLPRPRPRPARCPRP | 0.319 |
| RRIRTRPPRLPRPRPRPIDYPRP | -0.231 |
| RRIRRRPPRLPRPRPRPFNNPRP | 0.221 |
| RRIRWRPPRLPRPRPRPMPKPRP | 0.115 |
| RRIRYRPPRLPRPRPRPTTLPRP | -0.0157 |
| RRIRHRPPRLPRPRPRPTKGPRP | -0.14 |
| RRIRHRPPRLPRPRPRPEEYPRP | -0.289 |
| RRIRWRPPRLPRPRPRPFSIPRP | -0.228 |
| RRIRFRPPRLPRPRPRPVKYPRP | -0.147 |
| RRIRHRPPRLPRPRPRPYQYPRP | -0.00963 |
| RRIRLRPPRLPRPRPRPVDAPRP | 0.243 |
| RRIRERPPRLPRPRPRPAWSPRP | 0.233 |
| RRIRHRPPRLPRPRPRPVTLPRP | -0.175 |
| RRIRPRPPRLPRPRPRPKMLPRP | -0.222 |
| RRIRYRPPRLPRPRPRPGLWPRP | 0.032 |
| RRIRPRPPRLPRPRPRPSYVPRP | -0.127 |
| RRIRFRPPRLPRPRPRPFLVPRP | -0.426 |

| Sequence | shrunken log2 fold change |
| --- | --- |
| RRIRERPPRLPRPRPRPYEQPRP | -0.395 |
| RRIRDRPPRLPRPRPRPNNMPRP | -0.0368 |
| RRIRFRPPRLPRPRPRPLYTPRP | -0.58 |
| RRIRHRPPRLPRPRPRPELPPRP | -0.056 |
| RRIRSRPPRLPRPRPRPWGPPRP | 0.101 |
| RRIRLRPPRLPRPRPRPIHGPRP | -0.0797 |
| RRIRFRPPRLPRPRPRPGWWPRP | -0.0573 |
| RRIRRRPPRLPRPRPRPNEMPRP | 0.245 |
| RRIRHRPPRLPRPRPRPKRKPRP | 0.0863 |
| RRIRMRPPRLPRPRPRPQRNPRP | 0.209 |
| RRIRTRPPRLPRPRPRPYHTPRP | -0.723 |
| RRIRNRPPRLPRPRPRPSPVPRP | 0.00108 |
| RRIRHRPPRLPRPRPRPWQLPRP | -0.016 |
| RRIRQRPPRLPRPRPRPDFFPRP | 0.00508 |
| RRIRMRPPRLPRPRPRPRNSPRP | -0.294 |
| RRIRFRPPRLPRPRPRPYMNPRP | -0.818 |
| RRIRLRPPRLPRPRPRPHLYPRP | 0.61 |
| RRIRWRPPRLPRPRPRPFDIPRP | -0.838 |
| RRIRVRPPRLPRPRPRPGFHPRP | -0.184 |
| RRIRWRPPRLPRPRPRPDKHPRP | -0.243 |
| RRIRQRPPRLPRPRPRPVAPPRP | 0.357 |
| RRIRFRPPRLPRPRPRPHTPPRP | 1.24 |
| RRIRWRPPRLPRPRPRPELPPRP | 0.243 |
| RRIRGRPPRLPRPRPRPTHYPRP | 0.525 |
| RRIRLRPPRLPRPRPRPVQDPRP | -0.105 |
